Data from article PMC7057333.
Read-outs that look alike come from different tables or passages of the source.

Tests used:
[1] = target: LSD1_(172-833), lysine-specific demethylase 1 (human) (UniProt O60341)
[2] = target: LSD1_(172-833), lysine-specific demethylase 1 (human) (UniProt O60341); assay: enzyme inhibition kinetics (HRP-coupled fluorescence demethylation assay); 25 nM LSD1, substrate H3K4me1_(1-21), 25 mM Tris, 50 mM NaCl, 0.1 mg/mL BSA, pH 8, 1% DMSO; Ki by global fit of competitive inhibition for 1, 11, 24, 28, 31, 33, 34, else from IC50 by Cheng-Prusoff (substrate 20 μM)
[3] = target: LSD1_(172-833), lysine-specific demethylase 1 (human) (UniProt O60341); remark: listed apart in the source

| Substance | % inhibition of LSD1 demethylase activity at 100 μM peptide [1] [%] | Ki [2] [µM] | % inhibition of LSD1 demethylase activity at 100 μM peptide [3] [%] | IC50 of inhibition of LSD1 demethylase activity [3] [µM] |
| --- | --- | --- | --- | --- |
| lactam 27 (Lys3-Glu6 lactam-bridged H3_(1-11) K4M) (peptide) | 65 | 31 |  |  |
| lactam 29 (A1P-substituted lactam 27) (peptide) | 90 | 7 |  |  |
| lactam 30 (A1P-substituted lactam 28) (peptide) | 75 | 22 |  |  |
| lactam 32 (D-Glu3-Lys6 lactam-bridged H3_(1-11) K4M) (peptide) | < 20 | > 100 |  |  |
| peptide 20, linear precursor of 21 (allylglycine at positions 3 and 6 of H3_(1-11) K4M) |  |  | 95 | 10 |

Second part, the substance after the results:

| % inhibition of LSD1 demethylase activity at 100 μM peptide [1] [%] | Ki [2] [µM] | % inhibition of LSD1 demethylase activity at 100 μM peptide [3] [%] | IC50 of inhibition of LSD1 demethylase activity [3] [µM] | Substance |
| --- | --- | --- | --- | --- |
| 98 | 4 |  |  | lactam 28 (Glu3-Lys6 lactam-bridged H3_(1-11) K4M) (peptide) |
| 100 | 2.3 |  |  | macrocycle 31 (D-Lys3-Glu6 lactam-bridged H3_(1-11) K4M) (peptide) |
